The nanobody polyreactivity screen of Harvey et al. (2022)

Assay: yeast display, Sf9 membrane polyspecificity reagent, FACS + sequencing; frameworks hold sequencing errors
Procedure, shortened: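 Galactose induction of a Saccharomyces cerevisiae BJ5465 synthetic nanobody display library ran 36–48 hours. The cells were then stained for 1 hour at 4 °C with 10% biotinylated, detergent-solubilized Sf9 membrane reagent, pulled down on streptavidin microbeads and FACS-sorted into low and high (top ~1%) gates on expression and reagent-binding fluorescence. Labels for polyreactivity follow the gate of origin.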

| Sequence | polyreactivity (PSR sort gate) |
| --- | --- |
| QVQLVESGGGLVQAGGSLRLSCAASGRILGKNAMGWYRQAPRKERELVAAISGRGDRTHYADSVKGRFTISRDNAKNTVYLHMNSLKPEDTAVYYCAKDHHPPAKGQSVSLGYDYWGQGTQVTVSS | low polyreactivity |
| QVQLVESGGGLVQAGGSLRLSCAASGRILHANAMGWYRQAPGKERELVAAITGRGGSTYYADSVKGRFTISRDNAKITVYLQMNSLKPEDTAVYYCAARVKQAGYRMDYWVQGTQVTVSS | high polyreactivity |
| QVQLVESGGGLVQAGGSLRLSCAASGRILHGYAMGWYRQAPGKERELVAAITSSGGRTYYADSVKGRFTISRDNAKNTVYLQMNSLKPEDTAVYYCAADRPAYRTGDSKYDYWGQGTQVTVSS | low polyreactivity |
| QVQLVESGGGLVQAGGSLRLSCAASGRILIRNAMGWYRQAPGKERELVAAINRGGGSTYYADSVKGRFTISRDNAKNTVYLQMNSLKPEDTAVYYCAADRKAGYSRVDGDYWGQGTQVTVSS | low polyreactivity |
| QVQLVESGGGLVQAGGSLRLSCAASGRILIWYAMGWYRQAPGKERELVAAINWSGSSTSYADSVKGRFTISRDNAKNTVYLQMNSLKPEDTAVYYCAAGRLTTYTPGNRYYYWGQGTQVTVSS | high polyreactivity |
| QVQLVESGGGLVQAGGSLRLSCAASGRILKYNALGWYRQAPGKERELVAAISYRGGSTYYADSVKGRFTISRDNAKNTVYLQMNSLKPEDTAVYYCNAGGGILNGPLFDYWGQGTQVTVSS | low polyreactivity |
| QVQLVESGGGLVQAGGSLRLSCAASGRILLHYAMGWYRQAPGKERELVAAITSTGGTTYYADSVKGRFTISRDYAKNTFYLQMNSLKPEDTAVYYCAAKRQDSWGGTYGYWGQGTQVTVSS | low polyreactivity |
| QVQLVESGGGLVQAGGSLRLSCAASGRILLTYAMGWYRPAPGKERELVAAISSDSRTYYADSVKGRFTISRDNAQNTVYLQMNSLKPEDTAVYYCVRRRYKYDYWGQGTQVTVSS | low polyreactivity |
| QVQLVESGGGLVQAGGSLRLSCAASGRILLTYAMGWYRQAPGKERELVAAISSDSRTYYADSVKGRFTISRDNAKNTVYLQMNSLKPEDTAVYYCVRRRYKYDYWGQGTQVTVSS | low polyreactivity |
| QVQLVESGGGLVQAGGSLRLSCAASGRILPLYAMGWYRQAPGKDRELVALIDSGGSTNYADSVKGRFTISRDNAKNTVYLQMNSLKPEDTAVYYCAAVVTAQAYAYFTYGYDYWGQGTQVTVSS | low polyreactivity |
| QVQLVESGGGLVQAGGSLRLSCAASGRILPLYAMGWYRQAPGKERELVARIDSGGSTNYADSVKGRFTISRDNAKNTVYLQMNSLKPEDTAVYYCAAVVTAQAYAYFTYGYDYWGQGTQVTVSS | low polyreactivity |
| QVQLVESGGGLVQAGGSLRLSCAASGRILPRNAMGRYRQAPGKEREVVAGIYSDGSTNYADSVKGRFTISRDNAKNTVYLQMKSLKPEETAVYYCAKQFSSYQYFIILISPGDYWGQGTQVTVSS | low polyreactivity |
| QVQLVESGGGLVQAGGSLRLSCAASGRILPSNAMGWYRQAPGKERELVAGITSGGSTDYADSVKGRFTISRDNAKNTVFLQMNSLKPEDTAVYYCNKPFPYYPDGPNGYDYWGQGTQVTVSS | low polyreactivity |
| QVQLVESGGGLVQAGGSLRLSCAASGRILPVYAMGWYRQAPGKERELVAAINDSGTNTNYADSVKGRFTISRDNAKNTVYLHMNSLKPEDTAVYYCAASSGPRQGYSYRPHKSYGSWGQGTQVTVSS | low polyreactivity |
| QVQLVESGGGLVQAGGSLRLSCAASGRILPYYAMGWYRQAPGKERELVAAITSGGSTYYADSVKGRFTISRDNAKNTVSLQMNSLKPEDTAVYYCATDVDKSLYDYWGQGTQVTVSS | low polyreactivity |
| QVQLVESGGGLVQAGGSLRLSCAASGRILQFNAMGWYRQATGKERELVAAISTSGGRTYYADSVKGRFTISRDNAKNTVYLQMISLKPEDTAVYDCNAVAYKLMGYWGQGTQVTVSS | high polyreactivity |
| QVQLVESGGGLVQAGGSLRLSCAASGRILQVEYAMGWNIQAPGKERELVAAITESDGSTSYADSVKGRFTISRDNAKNTVYLQMNSLKPEDTAVYYCNVVRGYPNGGYDYWGQGTQVTVSS | low polyreactivity |
